The results in this text go back to patent US20090176205, “Mutant proteins in the dna-binding domain of a telomeric protein, trf2, and telomeric dna mutants, and use of the complex structure of the trf2 dna-binding domain and telomeric dna” (published 2009).

Data set [1] concerns the target T1, hTRF1 (DNA-binding domain) (Homo sapiens, UniProt P54274 P54274:371-439). The data set is described as follows: SPR; 10 mM HEPES-KOH pH 6.8, 3 mM EDTA, 180 mM KCl, 0.003% Triton X-100, 293 K. The settings on record: label: biotin (13mer on SA chip). As to the method: The same experiments were performed on hTRF1 under the same conditions.
Affinity analysis was performed using a Biacore 3000 instrument. All experiments were performed at 293 K using a buffer containing 10 mM HEPES-KOH, 3 mM EDTA, 180 mM KCl and 0.003% Triton X-100 (v/v) (pH 6.8). Flow cells of an SA streptavidin sensor chip were coated with the 13mer oligonucleotide biotinylated. The proteins were injected into flow cells over 3-5 min at a flow rate of 10 μL/min until the reaction of protein with DNA had been equilibrated. Bound proteins were removed by a 30-sec wash with 2M KCl. An equilibrium dissociate constant (Kd) was calculated from a Scatchard analysis of the RU values in the equilibrium region of the sensorgram at each analyte concentration. The affinity data were analyzed using BIAevaluation ver. 3.2 software.

The target in data set [2] is T2, hTRF2-DBD wild type (Homo sapiens, UniProt Q15554 SEQ:1-63). The data set is described as follows: SPR; pH 6.8, 180 mM KCl, 293 K; 1:1 complex also shown by NMR titration and structure. The settings on record: tags: N-terminal Met added; untagged, E. coli BL21(DE3) pET23b; label: biotin (13mer on SA chip). The method, then:
(§1) The same experiments were performed on the six mutants of hTRF2 under the same conditions. […] Further, the six mutants were analyzed by SPR for the three DNAs T3G, G7C and T9G, as well as tr13. As a result, Kd values for T3G are about 7 times higher than those values for tr13; and Kd values for T9G are about 100 times higher than those values for tr13. […] Since C7′ is changed to G7′ in G7C, Asp489 which recognizes C7′ has become incapable of recognizing DNA. Thus, interaction with DNA is assumed to be non-specific. Although the affinity to T9G is about 10 times lower than the affinity to G7C, differences in Kd values of individual mutants for DNA show relatively similar tendencies to those observed in tr13 and T3G. It is believed that the binding mode between the major groove and recognition helix is not changed and that only the affinity to T9G is merely very low.
(§2) Affinity analysis was performed using a Biacore 3000 instrument. All experiments were performed at 293 K using a buffer containing 10 mM HEPES-KOH, 3 mM EDTA, 180 mM KCl and 0.003% Triton X-100 (v/v) (pH 6.8). Flow cells of an SA streptavidin sensor chip were coated with the 13mer oligonucleotide biotinylated. The proteins were injected into flow cells over 3-5 min at a flow rate of 10 μL/min until the reaction of protein with DNA had been equilibrated. Bound proteins were removed by a 30-sec wash with 2M KCl.
Background: Surface plasmon resonance follows binding to a sensor surface in real time, without labels.

Data set [3] deals with T3, hTRF2-DBD dm (A471S/A484S) (Homo sapiens, UniProt Q15554 SEQ:1-63).
T3 chain: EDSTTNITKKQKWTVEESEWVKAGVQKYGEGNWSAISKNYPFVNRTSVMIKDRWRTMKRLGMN
The data set is described as follows: SPR; pH 6.8, 180 mM KCl, 293 K. The settings on record: tags: N-terminal Met added; untagged, E. coli BL21(DE3) pET23b; label: biotin (13mer on SA chip). As to the method: as §1, §2

The target of a further data set is T4, hTRF2-DBD K447R (Homo sapiens, UniProt Q15554 SEQ:1-63).
T4 chain: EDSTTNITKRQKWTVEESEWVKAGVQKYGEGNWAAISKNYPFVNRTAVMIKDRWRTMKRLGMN
The data set is described as follows: SPR; pH 6.8, 180 mM KCl, 293 K. Conditions: tags: N-terminal Met added; untagged, E. coli BL21(DE3) pET23b; label: biotin (13mer on SA chip). As to the method: as §1, §2

For the next data set, the target named is T5, hTRF2-DBD R496K (Homo sapiens, UniProt Q15554 SEQ:1-63).
T5 chain: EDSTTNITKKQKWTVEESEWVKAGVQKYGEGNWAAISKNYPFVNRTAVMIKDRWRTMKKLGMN
In words: SPR; pH 6.8, 180 mM KCl, 293 K. Conditions: tags: N-terminal Met added; untagged, E. coli BL21(DE3) pET23b; label: biotin (13mer on SA chip). The method, then:
as §1, §2

In a further data set the target is T6, hTRF2-DBD A484S (Homo sapiens, UniProt Q15554 SEQ:1-63).
T6 chain: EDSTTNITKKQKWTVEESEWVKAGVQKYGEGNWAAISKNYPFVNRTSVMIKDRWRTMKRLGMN
In words: SPR; pH 6.8, 180 mM KCl, 293 K. Conditions: tags: N-terminal Met added; untagged, E. coli BL21(DE3) pET23b; label: biotin (13mer on SA chip). As to the method: as §1, §2

The target in the next data set is T7, hTRF2-DBD A471S (Homo sapiens, UniProt Q15554 SEQ:1-63).
T7 chain: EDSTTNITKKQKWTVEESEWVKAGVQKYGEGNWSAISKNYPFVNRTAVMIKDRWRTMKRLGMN
In words: SPR; pH 6.8, 180 mM KCl, 293 K. Conditions: tags: N-terminal Met added; untagged, E. coli BL21(DE3) pET23b; label: biotin (13mer on SA chip). The method, then:
as §1, §2

For data set [4], the target named is T8, hTRF2-DBD qm (K447R/A471S/A484S/R496K) (Homo sapiens, UniProt Q15554 SEQ:1-63).
T8 chain: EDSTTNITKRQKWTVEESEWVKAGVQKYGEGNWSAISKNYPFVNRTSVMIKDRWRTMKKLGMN
In words: SPR; pH 6.8, 180 mM KCl, 293 K. Conditions: tags: N-terminal Met added; untagged, E. coli BL21(DE3) pET23b; label: biotin (13mer on SA chip). The method, then:
as §1, §2

The target of data set [5] is T2, hTRF2-DBD wild type. In words: SPR; pH 6.8, 180 mM KCl, 293 K. Conditions: tags: N-terminal Met added; untagged, E. coli BL21(DE3) pET23b; label: biotin (13mer on SA chip). The method, then:
as §1, §2

Data set [6] addresses T1, hTRF1 (DNA-binding domain). In words: SPR; pH 6.8, 180 mM KCl, 293 K. Conditions: label: biotin (13mer on SA chip). As to the method: as §1, §2

T1 sequence (P54274 371-439, one chain of several): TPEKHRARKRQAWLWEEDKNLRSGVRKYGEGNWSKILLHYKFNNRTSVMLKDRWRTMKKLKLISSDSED

B1: tr13 (dsDNA)
DNA 1: GTTAGGGTTAGGG
DNA 2: CCCTAACCCTAAC
By Kd is commonly meant the free concentration of one partner at which half of the binding sites on the other are occupied at equilibrium, for simple one-to-one binding. Read a high Kd as a looser complex. For B1, the Kd in [1] amounted to 0.186 µM; with hTRF2-DBD wild type [2], 0.748 µM; in data set [3] it was 0.385 µM; with hTRF2-DBD K447R it was 0.297 µM; with hTRF2-DBD R496K it was 0.764 µM; in the data set with hTRF2-DBD A484S it was 0.55 µM. For the same molecule, the values for the Kd (with hTRF2-DBD A471S; in data set [4]) were 0.482 µM and 0.196 µM, respectively.

B2: T3G (dsDNA)
DNA 1: GTGAGGGTTAGGG
DNA 2: CCCTAACCCTCAC
As to B2, the Kd is 5.94 µM with hTRF2-DBD wild type [5]; 2.58 µM in data set [3]; 2.19 µM with hTRF2-DBD K447R; 4.92 µM in the data set with hTRF2-DBD R496K; 4.03 µM with hTRF2-DBD A484S; 3.07 µM with hTRF2-DBD A471S. Binding in [6] was characterised by a dissociation constant (Kd) of 0.795 µM.

B3: T9G (dsDNA)
DNA 1: GTTAGGGTGAGGG
DNA 2: CCCTCACCCTAAC
In the case of B3, the Kd stood at 110 µM with hTRF2-DBD wild type [5]; 47.9 µM in data set [3]; 37 µM with hTRF2-DBD K447R; 114 µM in the data set with hTRF2-DBD R496K; 69.1 µM with hTRF2-DBD A484S; 44.2 µM with hTRF2-DBD A471S. For the same molecule, the figures for the Kd in data set [6] and in data set [4] were 3.14 µM and 26.5 µM, respectively.

B4: G7C (dsDNA)
DNA 1: GTTAGGCTTAGGG
DNA 2: CCCTAAGCCTAAC
In the case of B4, the Kd in data set [3] was 33.8 µM; in the data set with hTRF2-DBD K447R, 24.5 µM; in the data set with hTRF2-DBD R496K, 87 µM; with hTRF2-DBD A484S, 50.7 µM; with hTRF2-DBD A471S it was 32.3 µM; in data set [6], 12.2 µM.
